From US20190241648A1 (STATEN BIOTECHNOLOGY B V, published 2019)
Ends that are not written are not given here.

Experiments:
Experiment in all cases: peptide microarray
[1] = molecular target: ApoC3 peptide … E63N (human, cyclic constrained)
Protocol: (§1) F64 was completely variable.
(§2) Pre: staining of one of the ApoC3 peptide microarrays was done with the secondary antibody goat anti-human IgG (Fe) DyLight680 (1:5000) and control antibody mouse monoclonal anti-HA (12CA5) DyLight800 (1:2000) to investigate background interactions of the secondary antibody with the antigen-derived peptides that could interfere with the main assays. Subsequent incubation of other ApoC3 peptide microarrays with antibody samples was followed by staining with secondary and control antibodies as well as read-out at scanning intensities of 7/7 (red/green). The additional HA peptides framing the peptide arrays were stained as internal quality control to confirm the assay quality and the peptide microarray integrity.

[2] = molecular target: ApoC3 peptide … E63W (human, cyclic constrained)
Protocol: as §1, §2

[3] = molecular target: T1, ApoC3 peptide … W65P (human, not fully specified (bridges); also: cyclic constrained, ring type and places not given here)
T1 peptide: DKFSEFPDLDPEV
Protocol: as §1, §2

[4] = molecular target: T2, ApoC3 peptide … D66Y (human, not fully specified (bridges); also: cyclic constrained)
T2 peptide: DKFSEFWYLDPEV
Protocol: as §1, §2

[5] = molecular target: T3, ApoC3 peptide … W65T (human, not fully specified (bridges); also: cyclic constrained, ring type and places not given here)
T3 peptide: DKFSEFTDLDPEV
Protocol: as §1, §2

[6] = molecular target: T4, ApoC3 peptide … E70W (human, cyclic constrained)
T4 peptide: DKFSEFWDLDPWV
Protocol: as §1, §2

[7] = molecular target: T5, ApoC3 peptide … D59M (human, cyclic constrained)
T5 peptide: MKFSEFWDLDPEV
Protocol: as §1, §2

[8] = molecular target: T6, ApoC3 peptide … P69K (human, not fully specified (bridges); also: cyclic constrained)
T6 peptide: DKFSEFWDLDKEV
Protocol: as §1, §2

[9] = molecular target: T7, ApoC3 peptide … D59G (human, cyclic constrained)
T7 peptide: GKFSEFWDLDPEV
Protocol: as §1, §2

[10] = molecular target: T8, ApoC3 peptide … D59R (human, cyclic constrained)
T8 peptide: RKFSEFWDLDPEV
Protocol: as §1, §2

[11] = molecular target: T9, ApoC3 peptide … D59K (human, cyclic constrained)
T9 peptide: KKFSEFWDLDPEV
Protocol: as §1, §2

[12] = molecular target: ApoC3 peptide … E63K (human, cyclic constrained)
Protocol: as §1, §2

[13] = molecular target: T10, ApoC3 peptide … P69I (human, not fully specified (bridges); also: cyclic constrained)
T10 peptide: DKFSEFWDLDIEV
Protocol: as §1, §2

[14] = molecular target: ApoC3 peptide … S62H (human, cyclic constrained)
Protocol: as §1, §2

[15] = molecular target: T11, ApoC3 peptide … D68K (human, cyclic constrained)
T11 peptide: DKFSEFWDLKPEV
Protocol: as §1, §2

[16] = molecular target: T12, ApoC3 peptide … D59P (human, cyclic constrained)
T12 peptide: PKFSEFWDLDPEV
Protocol: as §1, §2

[17] = molecular target: T13, ApoC3 peptide … F61L (human, not fully specified (bridges); also: cyclic constrained)
T13 peptide: DKLSEFWDLDPEV
Protocol: as §1, §2

[18] = molecular target: ApoC3 peptide … E70F (human, cyclic constrained)
Protocol: as §1, §2

[19] = molecular target: T14, ApoC3 peptide … E70K (human, not fully specified (bridges); also: cyclic constrained)
T14 peptide: DKFSEFWDLDPKV
Protocol: as §1, §2

[20] = molecular target: ApoC3 peptide … P69W (human, cyclic constrained)
Protocol: as §1, §2

[21] = molecular target: T15, ApoC3 peptide … W65Y (human, not fully specified (bridges); also: cyclic constrained, ring type and places not given here)
T15 peptide: DKFSEFYDLDPEV
Protocol: as §1, §2

[22] = molecular target: ApoC3 peptide … P69N (human, cyclic constrained)
Protocol: as §1, §2

[23] = molecular target: ApoC3 peptide … E70A (human, cyclic constrained)
Protocol: as §1, §2

[24] = molecular target: ApoC3 peptide … D68W (human, cyclic constrained)
Protocol: as §1, §2

[25] = molecular target: T16, ApoC3 peptide … L67P (human, not fully specified (bridges); also: cyclic constrained)
T16 peptide: DKFSEFWDPDPEV
Protocol: as §1, §2

[26] = molecular target: T17, ApoC3 peptide … E70Y (human, cyclic constrained)
T17 peptide: DKFSEFWDLDPYV
Protocol: as §1, §2

[27] = molecular target: ApoC3 peptide … S62P (human, cyclic constrained)
Protocol: as §1, §2

[28] = molecular target: ApoC3 peptide … S62C (human, cyclic constrained)
Protocol: as §1, §2

[29] = molecular target: T18, ApoC3 peptide … W65K (human, not fully specified (bridges); also: cyclic constrained, ring type and places not given here)
T18 peptide: DKFSEFKDLDPEV
Protocol: as §1, §2

[30] = molecular target: T19, ApoC3 peptide … D68S (human, not fully specified; cyclic constrained)
T19 peptide: DKFSEFWDLSPEV
Protocol: as §1, §2

[31] = molecular target: ApoC3 peptide … P69V (human, cyclic constrained)
Protocol: as §1, §2

[32] = molecular target: T20, ApoC3 peptide … K60S (human, not fully specified (bridges); also: cyclic constrained)
T20 peptide: DSFSEFWDLDPEV
Protocol: as §1, §2

[33] = molecular target: ApoC3 peptide … S62L (human, cyclic constrained)
Protocol: as §1, §2

[34] = molecular target: ApoC3 peptide … S62Q (human, cyclic constrained)
Protocol: as §1, §2

[35] = molecular target: T21, ApoC3 peptide … F61T (human, not fully specified (bridges); also: cyclic constrained)
T21 peptide: DKTSEFWDLDPEV
Protocol: as §1, §2

[36] = molecular target: T22, ApoC3 peptide … K60P (human, not fully specified (bridges); also: cyclic constrained)
T22 peptide: DPFSEFWDLDPEV
Protocol: as §1, §2

[37] = molecular target: T23, ApoC3 peptide … W65N (human, not fully specified (bridges); also: cyclic constrained, ring type and places not given here)
T23 peptide: DKFSEFNDLDPEV
Protocol: as §1, §2

[38] = molecular target: T24, ApoC3 peptide … D68F (human, cyclic constrained)
T24 peptide: DKFSEFWDLFPEV
Protocol: as §1, §2

B1: anti-ApoC3 antibody 6A6 (antibody, V domains shown)
VH: EVQLVESGGGLVQPGGSLRLSCAASGFTFSSYAGRWVRQVPGKGLEWVSSINAGGGSTSYADSVKGRFTISRDNAKNTLYLQMNSLKPEDTAKYYCTQNSYRYWGQGTRVAVSS
VL: DVVLTQTPGSLSVVPGESASISCKASQSLIHTDGKTYLYWLLQKPGQRPQLLIYQVSSHESGVPDRFTGSGSGTDFTLKISGVKAEDAGVYYCAQATYNPRTFGQGTKLEIK
notes: it was detected with goat anti-human IgG (Fc); also called mAb 6A6; llama antibody 6A6
For B1, the “% of binding to wild-type peptide” value [1] was 38.8%, the “% of binding to wild-type peptide” value [2] was 1.91% and the “% of binding to wild-type peptide” value [3] was 13.8%. For the same binder, the “% of binding to wild-type peptide” value [4] was 0%, the “% of binding to wild-type peptide” value [5] was 105% and the “% of binding to wild-type peptide” value [6] was 2.84%. For the same binder, the “% of binding to wild-type peptide” value [7] was 60.2%, the “% of binding to wild-type peptide” value [8] was 26.3% and the “% of binding to wild-type peptide” value [9] was 87.5%. The “% of binding to wild-type peptide” value [10] was 70.2%, the “% of binding to wild-type peptide” value [11] was 45.6% and the “% of binding to wild-type peptide” value [12] was 7.9%. The “% of binding to wild-type peptide” value [13] was 81.9%, the “% of binding to wild-type peptide” value [14] was 26.5% and the “% of binding to wild-type peptide” value [15] was 0%. The “% of binding to wild-type peptide” value [16] was 107%, the “% of binding to wild-type peptide” value [17] was 61.3% and the “% of binding to wild-type peptide” value [18] was 9.36%. The “% of binding to wild-type peptide” value [19] was 0%, the “% of binding to wild-type peptide” value [20] was 13.7% and the “% of binding to wild-type peptide” value [21] was 26.7%. For the same binder, the “% of binding to wild-type peptide” value [22] was 32.7%, the “% of binding to wild-type peptide” value [23] was 0.97% and the “% of binding to wild-type peptide” value [24] was 0%. The “% of binding to wild-type peptide” value [25] was 0%, the “% of binding to wild-type peptide” value [26] was 4.49% and the “% of binding to wild-type peptide” value [27] was 27.1%. The “% of binding to wild-type peptide” value [28] was 10.4%, the “% of binding to wild-type peptide” value [29] was 0% and the “% of binding to wild-type peptide” value [30] was 0.57%. The “% of binding to wild-type peptide” value [31] was 68.3%, the “% of binding to wild-type peptide” value [32] was 156% and the “% of binding to wild-type peptide” value [33] was 81%. The “% of binding to wild-type peptide” value [34] was 111%, the “% of binding to wild-type peptide” value [35] was 56.3% and the “% of binding to wild-type peptide” value [36] was 157%. The “% of binding to wild-type peptide” value [37] was 56.5% and the “% of binding to wild-type peptide” value [38] was 0%.
